# Numbered stars: 1 amine (or outer) side, 2 acyl side, 3 side chain; on linkers, the order of the positions; unused ones are H or OH. Bridge positions count the residues as written; N and C are the ends. Side chains are listed from the residue outwards. Ends that are not written are not given here. * marks the point of attachment. C20 diacid = O=C(O)CCCCCCCCCCCCCCCCCCC(=O)*; γGlu = O=C(O)[C@H](CCC(=O)[*:2])N[*:1]
# B1: N^ε1-[(4S)-4-carboxy-4-(19-carboxynonadecanoylamino)butanoyl]-[Arg14,Arg17,Pro21,Pro27]-h-amylin (peptide)
# peptide: K([γGlu-C20 diacid])CNTATCATQRLARFLRHSSPNFGAIPSSTNVGSNTY-NH2
# modifications: disulfide 2-7; N-terminus assumed
# SMILES: CC[C@H](C)[C@H](NC(=O)[C@H](C)NC(=O)CNC(=O)[C@H](Cc1ccccc1)NC(=O)[C@H](CC(N)=O)NC(=O)[C@@H]1CCCN1C(=O)[C@H](CO)NC(=O)[C@H](CO)NC(=O)[C@H](Cc1c[nH]cn1)NC(=O)[C@H](CCCNC(=N)N)NC(=O)[C@H](CC(C)C)NC(=O)[C@H](Cc1ccccc1)NC(=O)[C@H](CCCNC(=N)N)NC(=O)[C@H](C)NC(=O)[C@H](CC(C)C)NC(=O)[C@H](CCCNC(=N)N)NC(=O)[C@H](CCC(N)=O)NC(=O)[C@@H](NC(=O)[C@H](C)NC(=O)[C@@H]1CSSC[C@H](NC(=O)[C@@H](N)CCCCNC(=O)CC[C@H](NC(=O)CCCCCCCCCCCCCCCCCCC(=O)O)C(=O)O)C(=O)N[C@@H](CC(N)=O)C(=O)N[C@@H]([C@@H](C)O)C(=O)N[C@@H](C)C(=O)N[C@@H]([C@@H](C)O)C(=O)N1)[C@@H](C)O)C(=O)N1CCC[C@H]1C(=O)N[C@@H](CO)C(=O)N[C@@H](CO)C(=O)N[C@H](C(=O)N[C@@H](CC(N)=O)C(=O)N[C@H](C(=O)NCC(=O)N[C@@H](CO)C(=O)N[C@@H](CC(N)=O)C(=O)N[C@H](C(=O)N[C@@H](Cc1ccc(O)cc1)C(N)=O)[C@@H](C)O)C(C)C)[C@@H](C)O
# notes: also called compound 83
# B2: N^ε1-[(4S)-4-carboxy-4-(19-carboxynonadecanoylamino)butanoyl]-[Arg17,Pro21,Pro27,His35]-h-amylin (peptide)
# peptide: K([γGlu-C20 diacid])CNTATCATQRLANFLRHSSPNFGAIPSSTNVGSHTY-NH2
# modifications: disulfide 2-7; N-terminus assumed
# SMILES: CC[C@H](C)[C@H](NC(=O)[C@H](C)NC(=O)CNC(=O)[C@H](Cc1ccccc1)NC(=O)[C@H](CC(N)=O)NC(=O)[C@@H]1CCCN1C(=O)[C@H](CO)NC(=O)[C@H](CO)NC(=O)[C@H](Cc1c[nH]cn1)NC(=O)[C@H](CCCNC(=N)N)NC(=O)[C@H](CC(C)C)NC(=O)[C@H](Cc1ccccc1)NC(=O)[C@H](CC(N)=O)NC(=O)[C@H](C)NC(=O)[C@H](CC(C)C)NC(=O)[C@H](CCCNC(=N)N)NC(=O)[C@H](CCC(N)=O)NC(=O)[C@@H](NC(=O)[C@H](C)NC(=O)[C@@H]1CSSC[C@H](NC(=O)[C@@H](N)CCCCNC(=O)CC[C@H](NC(=O)CCCCCCCCCCCCCCCCCCC(=O)O)C(=O)O)C(=O)N[C@@H](CC(N)=O)C(=O)N[C@@H]([C@@H](C)O)C(=O)N[C@@H](C)C(=O)N[C@@H]([C@@H](C)O)C(=O)N1)[C@@H](C)O)C(=O)N1CCC[C@H]1C(=O)N[C@@H](CO)C(=O)N[C@@H](CO)C(=O)N[C@H](C(=O)N[C@@H](CC(N)=O)C(=O)N[C@H](C(=O)NCC(=O)N[C@@H](CO)C(=O)N[C@@H](Cc1c[nH]cn1)C(=O)N[C@H](C(=O)N[C@@H](Cc1ccc(O)cc1)C(N)=O)[C@@H](C)O)C(C)C)[C@@H](C)O
# notes: also called compound 60
# B3: N^ε1-[(4S)-4-carboxy-4-(19-carboxynonadecanoylamino)butanoyl]-[Arg17,Pro21,Pro27,Arg34]-h-amylin (peptide)
# peptide: K([γGlu-C20 diacid])CNTATCATQRLANFLRHSSPNFGAIPSSTNVGRNTY-NH2
# modifications: disulfide 2-7; N-terminus assumed
# SMILES: CC[C@H](C)[C@H](NC(=O)[C@H](C)NC(=O)CNC(=O)[C@H](Cc1ccccc1)NC(=O)[C@H](CC(N)=O)NC(=O)[C@@H]1CCCN1C(=O)[C@H](CO)NC(=O)[C@H](CO)NC(=O)[C@H](Cc1c[nH]cn1)NC(=O)[C@H](CCCNC(=N)N)NC(=O)[C@H](CC(C)C)NC(=O)[C@H](Cc1ccccc1)NC(=O)[C@H](CC(N)=O)NC(=O)[C@H](C)NC(=O)[C@H](CC(C)C)NC(=O)[C@H](CCCNC(=N)N)NC(=O)[C@H](CCC(N)=O)NC(=O)[C@@H](NC(=O)[C@H](C)NC(=O)[C@@H]1CSSC[C@H](NC(=O)[C@@H](N)CCCCNC(=O)CC[C@H](NC(=O)CCCCCCCCCCCCCCCCCCC(=O)O)C(=O)O)C(=O)N[C@@H](CC(N)=O)C(=O)N[C@@H]([C@@H](C)O)C(=O)N[C@@H](C)C(=O)N[C@@H]([C@@H](C)O)C(=O)N1)[C@@H](C)O)C(=O)N1CCC[C@H]1C(=O)N[C@@H](CO)C(=O)N[C@@H](CO)C(=O)N[C@H](C(=O)N[C@@H](CC(N)=O)C(=O)N[C@H](C(=O)NCC(=O)N[C@@H](CCCNC(=N)N)C(=O)N[C@@H](CC(N)=O)C(=O)N[C@H](C(=O)N[C@@H](Cc1ccc(O)cc1)C(N)=O)[C@@H](C)O)C(C)C)[C@@H](C)O
# notes: also called compound 79
# B4: N^ε1-[(4S)-4-carboxy-4-(19-carboxynonadecanoylamino)butanoyl]-[His14,Arg17,Pro21,Pro27,His34]-h-amylin (peptide)
# peptide: K([γGlu-C20 diacid])CNTATCATQRLAHFLRHSSPNFGAIPSSTNVGHNTY-NH2
# modifications: disulfide 2-7; N-terminus assumed
# SMILES: CC[C@H](C)[C@H](NC(=O)[C@H](C)NC(=O)CNC(=O)[C@H](Cc1ccccc1)NC(=O)[C@H](CC(N)=O)NC(=O)[C@@H]1CCCN1C(=O)[C@H](CO)NC(=O)[C@H](CO)NC(=O)[C@H](Cc1c[nH]cn1)NC(=O)[C@H](CCCNC(=N)N)NC(=O)[C@H](CC(C)C)NC(=O)[C@H](Cc1ccccc1)NC(=O)[C@H](Cc1c[nH]cn1)NC(=O)[C@H](C)NC(=O)[C@H](CC(C)C)NC(=O)[C@H](CCCNC(=N)N)NC(=O)[C@H](CCC(N)=O)NC(=O)[C@@H](NC(=O)[C@H](C)NC(=O)[C@@H]1CSSC[C@H](NC(=O)[C@@H](N)CCCCNC(=O)CC[C@H](NC(=O)CCCCCCCCCCCCCCCCCCC(=O)O)C(=O)O)C(=O)N[C@@H](CC(N)=O)C(=O)N[C@@H]([C@@H](C)O)C(=O)N[C@@H](C)C(=O)N[C@@H]([C@@H](C)O)C(=O)N1)[C@@H](C)O)C(=O)N1CCC[C@H]1C(=O)N[C@@H](CO)C(=O)N[C@@H](CO)C(=O)N[C@H](C(=O)N[C@@H](CC(N)=O)C(=O)N[C@H](C(=O)NCC(=O)N[C@@H](Cc1c[nH]cn1)C(=O)N[C@@H](CC(N)=O)C(=O)N[C@H](C(=O)N[C@@H](Cc1ccc(O)cc1)C(N)=O)[C@@H](C)O)C(C)C)[C@@H](C)O
# notes: also called compound 81
# B5: N^ε1-[(4S)-4-carboxy-4-(19-carboxynonadecanoylamino)butanoyl]-[Arg17,Pro21,Pro27,His34]-h-amylin (peptide)
# peptide: K([γGlu-C20 diacid])CNTATCATQRLANFLRHSSPNFGAIPSSTNVGHNTY-NH2
# modifications: disulfide 2-7; N-terminus assumed
# SMILES: CC[C@H](C)[C@H](NC(=O)[C@H](C)NC(=O)CNC(=O)[C@H](Cc1ccccc1)NC(=O)[C@H](CC(N)=O)NC(=O)[C@@H]1CCCN1C(=O)[C@H](CO)NC(=O)[C@H](CO)NC(=O)[C@H](Cc1c[nH]cn1)NC(=O)[C@H](CCCNC(=N)N)NC(=O)[C@H](CC(C)C)NC(=O)[C@H](Cc1ccccc1)NC(=O)[C@H](CC(N)=O)NC(=O)[C@H](C)NC(=O)[C@H](CC(C)C)NC(=O)[C@H](CCCNC(=N)N)NC(=O)[C@H](CCC(N)=O)NC(=O)[C@@H](NC(=O)[C@H](C)NC(=O)[C@@H]1CSSC[C@H](NC(=O)[C@@H](N)CCCCNC(=O)CC[C@H](NC(=O)CCCCCCCCCCCCCCCCCCC(=O)O)C(=O)O)C(=O)N[C@@H](CC(N)=O)C(=O)N[C@@H]([C@@H](C)O)C(=O)N[C@@H](C)C(=O)N[C@@H]([C@@H](C)O)C(=O)N1)[C@@H](C)O)C(=O)N1CCC[C@H]1C(=O)N[C@@H](CO)C(=O)N[C@@H](CO)C(=O)N[C@H](C(=O)N[C@@H](CC(N)=O)C(=O)N[C@H](C(=O)NCC(=O)N[C@@H](Cc1c[nH]cn1)C(=O)N[C@@H](CC(N)=O)C(=O)N[C@H](C(=O)N[C@@H](Cc1ccc(O)cc1)C(N)=O)[C@@H](C)O)C(C)C)[C@@H](C)O
# notes: also called compound 77
# B6: N^ε1-[(4S)-4-carboxy-4-(19-carboxynonadecanoylamino)butanoyl]-[His14,Arg17,Pro21,Pro27,Arg34]-h-amylin (peptide)
# peptide: K([γGlu-C20 diacid])CNTATCATQRLAHFLRHSSPNFGAIPSSTNVGRNTY-NH2
# modifications: disulfide 2-7; N-terminus assumed
# SMILES: CC[C@H](C)[C@H](NC(=O)[C@H](C)NC(=O)CNC(=O)[C@H](Cc1ccccc1)NC(=O)[C@H](CC(N)=O)NC(=O)[C@@H]1CCCN1C(=O)[C@H](CO)NC(=O)[C@H](CO)NC(=O)[C@H](Cc1c[nH]cn1)NC(=O)[C@H](CCCNC(=N)N)NC(=O)[C@H](CC(C)C)NC(=O)[C@H](Cc1ccccc1)NC(=O)[C@H](Cc1c[nH]cn1)NC(=O)[C@H](C)NC(=O)[C@H](CC(C)C)NC(=O)[C@H](CCCNC(=N)N)NC(=O)[C@H](CCC(N)=O)NC(=O)[C@@H](NC(=O)[C@H](C)NC(=O)[C@@H]1CSSC[C@H](NC(=O)[C@@H](N)CCCCNC(=O)CC[C@H](NC(=O)CCCCCCCCCCCCCCCCCCC(=O)O)C(=O)O)C(=O)N[C@@H](CC(N)=O)C(=O)N[C@@H]([C@@H](C)O)C(=O)N[C@@H](C)C(=O)N[C@@H]([C@@H](C)O)C(=O)N1)[C@@H](C)O)C(=O)N1CCC[C@H]1C(=O)N[C@@H](CO)C(=O)N[C@@H](CO)C(=O)N[C@H](C(=O)N[C@@H](CC(N)=O)C(=O)N[C@H](C(=O)NCC(=O)N[C@@H](CCCNC(=N)N)C(=O)N[C@@H](CC(N)=O)C(=O)N[C@H](C(=O)N[C@@H](Cc1ccc(O)cc1)C(N)=O)[C@@H](C)O)C(C)C)[C@@H](C)O
# notes: also called compound 85
# Target: T1, human calcitonin receptor (human, UniProt P30988 25-474)
# T1 sequence (looked up): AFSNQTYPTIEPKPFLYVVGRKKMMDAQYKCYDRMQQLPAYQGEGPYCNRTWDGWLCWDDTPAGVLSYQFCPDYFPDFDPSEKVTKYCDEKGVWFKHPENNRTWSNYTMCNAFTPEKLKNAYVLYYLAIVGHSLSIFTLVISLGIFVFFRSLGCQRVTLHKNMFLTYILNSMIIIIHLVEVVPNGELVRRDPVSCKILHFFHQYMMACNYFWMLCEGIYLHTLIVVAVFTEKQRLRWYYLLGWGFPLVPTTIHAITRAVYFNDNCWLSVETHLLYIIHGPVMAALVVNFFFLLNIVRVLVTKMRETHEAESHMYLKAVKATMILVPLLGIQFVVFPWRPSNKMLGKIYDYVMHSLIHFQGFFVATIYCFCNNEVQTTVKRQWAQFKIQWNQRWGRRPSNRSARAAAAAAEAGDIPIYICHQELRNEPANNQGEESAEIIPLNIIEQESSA
# Assay: cell-based or functional assay
row,Binder,hCTR funct. EC50 [nM]
1,B1,16.8
2,B2,5.36
3,B3,3.94
4,B4,1.73
5,B5,5.4
6,B6,3.88
